The values below are quoted from earlier work in publication PMC6310256.

In the data set the target is complement C5 (human, recombinant) (UniProt P01031). Nature of the data set: SPR (Biacore), as reported in ref 17. To be noted: cited from earlier work.
Sequence of UniProt P01031 (P01031 whole entry): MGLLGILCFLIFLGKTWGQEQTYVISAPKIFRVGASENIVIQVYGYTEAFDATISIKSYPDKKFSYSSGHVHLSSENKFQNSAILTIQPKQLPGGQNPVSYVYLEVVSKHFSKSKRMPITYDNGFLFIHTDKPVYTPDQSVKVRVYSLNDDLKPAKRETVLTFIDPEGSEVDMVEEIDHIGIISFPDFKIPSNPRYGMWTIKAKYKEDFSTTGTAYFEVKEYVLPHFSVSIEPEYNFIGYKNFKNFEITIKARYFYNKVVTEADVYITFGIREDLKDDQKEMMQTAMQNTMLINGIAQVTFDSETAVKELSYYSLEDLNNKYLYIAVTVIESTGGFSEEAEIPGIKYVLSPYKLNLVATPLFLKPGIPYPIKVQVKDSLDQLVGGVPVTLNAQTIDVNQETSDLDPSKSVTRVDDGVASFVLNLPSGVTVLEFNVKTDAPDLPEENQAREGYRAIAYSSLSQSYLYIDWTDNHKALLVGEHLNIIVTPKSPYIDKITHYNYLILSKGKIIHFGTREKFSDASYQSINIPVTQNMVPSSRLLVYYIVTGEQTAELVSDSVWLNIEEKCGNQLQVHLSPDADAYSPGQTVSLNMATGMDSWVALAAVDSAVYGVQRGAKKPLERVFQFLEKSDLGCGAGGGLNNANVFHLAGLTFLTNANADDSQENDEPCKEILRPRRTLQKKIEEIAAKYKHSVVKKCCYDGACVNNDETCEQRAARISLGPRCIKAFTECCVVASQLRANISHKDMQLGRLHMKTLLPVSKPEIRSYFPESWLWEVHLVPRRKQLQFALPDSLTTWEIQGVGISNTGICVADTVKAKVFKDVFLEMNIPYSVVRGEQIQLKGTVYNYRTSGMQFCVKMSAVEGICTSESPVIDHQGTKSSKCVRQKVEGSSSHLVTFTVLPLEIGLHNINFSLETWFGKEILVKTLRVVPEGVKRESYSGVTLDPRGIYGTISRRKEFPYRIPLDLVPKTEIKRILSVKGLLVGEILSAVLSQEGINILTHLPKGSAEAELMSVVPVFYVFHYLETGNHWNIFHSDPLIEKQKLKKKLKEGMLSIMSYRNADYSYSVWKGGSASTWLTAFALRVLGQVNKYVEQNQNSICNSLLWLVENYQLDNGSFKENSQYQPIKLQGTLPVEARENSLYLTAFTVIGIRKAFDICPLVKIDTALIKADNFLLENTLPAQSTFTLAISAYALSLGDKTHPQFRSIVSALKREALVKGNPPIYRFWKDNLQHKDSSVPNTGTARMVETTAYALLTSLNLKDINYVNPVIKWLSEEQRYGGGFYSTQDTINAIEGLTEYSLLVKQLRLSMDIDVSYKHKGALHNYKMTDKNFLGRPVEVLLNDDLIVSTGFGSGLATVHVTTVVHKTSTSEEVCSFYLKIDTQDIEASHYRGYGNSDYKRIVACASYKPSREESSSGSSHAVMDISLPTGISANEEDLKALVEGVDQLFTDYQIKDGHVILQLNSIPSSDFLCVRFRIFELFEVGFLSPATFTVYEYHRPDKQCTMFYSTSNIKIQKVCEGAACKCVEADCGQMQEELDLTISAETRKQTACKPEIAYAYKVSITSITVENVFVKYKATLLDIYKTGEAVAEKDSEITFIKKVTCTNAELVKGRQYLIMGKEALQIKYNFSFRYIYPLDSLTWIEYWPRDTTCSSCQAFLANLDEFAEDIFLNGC

For the substance “SKY59 (crovalimab, RO7112689) Includes am1-am6 and pm1-pm3 (pm3 is light chain F92K, Kabat), plus charge, deimmunization and Fc mutations that are not listed.”, the kd (pH 5.8) was 0.0145 s⁻¹. In addition, for the setting “pH 7.4”, the KD was 0.152 nM and the ka is 1.44e+06 M⁻¹ s⁻¹.

As a reminder, the KD is a measure of binding affinity in units of concentration.
